Test results from US20220062341A1 (KIRIN, published 2022).

B1: modified TCR consisting of β1 and α1 (TCR)
TCR alpha: YQLRDSKSSDKSVCLFTDFDSQTNVSQSKDSDVYITDKTVLDMRSMDFKSNSAVAWSNKSDFACANAFNNSIIPEDTFFPSPESSCDVKLVEKSFETDTNLNFQNLSVIGFRILLLKVAGFNLLMTLRLWSS
TCR beta: SEAEISHTQKATLVCLATGFYPDHVELSWWVNGKEVHSGVSTDPQPLKEQPALNDSRYCLSSRLRVSATFWQNPRNHFRCQVQFYGLSENDEWTQDRAKPVTQIVSAEAWGRADCGFTSESYQQGVLSATILYEILLGKATLYAVLVSALVLMAMVKRKDSRG
B2: modified TCR consisting of β2 and α1 (TCR)
TCR alpha: YQLRDSKSSDKSVCLFTDFDSQTNVSQSKDSDVYITDKTVLDMRSMDFKSNSAVAWSNKSDFACANAFNNSIIPEDTFFPSPESSCDVKLVEKSFETDTNLNFQNLSVIGFRILLLKVAGFNLLMTLRLWSS
TCR beta: ATLVCLATGFYPDHVELSWWVNGKEVHSGVSTDPQPLKEQPALNDSRYCLSSRLRVSATFWQNPRNHFRCQVQFYGLSENDEWTQDRAKPVTQIVSAEAWGRADCGFTSESYQQGVLSATILYEILLGKATLYAVLVSALVLMAMVKRKDSRG
B3: modified TCR consisting of β10 and α3 (TCR)
TCR alpha: NVSQSKDSDVYITDKTVLDMRSMDFKSNSAVAWSNKSDFACANAFNNSIIPEDTFFPSPESSCDVKLVEKSFETDTNLNFQNLSVIGFRILLLKVAGFNLLMTLRLWSS
TCR beta: YGLSENDEWTQDRAKPVTQIVSAEAWGRADCGFTSESYQQGVLSATILYEILLGKATLYAVLVSALVLMAMVKRKDSRG
B4: modified TCR consisting of β10 and α5 (TCR)
TCR alpha: LDMRSMDFKSNSAVAWSNKSDFACANAFNNSIIPEDTFFPSPESSCDVKLVEKSFETDTNLNFQNLSVIGFRILLLKVAGFNLLMTLRLWSS
TCR beta: YGLSENDEWTQDRAKPVTQIVSAEAWGRADCGFTSESYQQGVLSATILYEILLGKATLYAVLVSALVLMAMVKRKDSRG
B5: modified TCR consisting of β10 and α7 (TCR)
TCR alpha: SNKSDFACANAFNNSIIPEDTFFPSPESSCDVKLVEKSFETDTNLNFQNLSVIGFRILLLKVAGFNLLMTLRLWSS
TCR beta: YGLSENDEWTQDRAKPVTQIVSAEAWGRADCGFTSESYQQGVLSATILYEILLGKATLYAVLVSALVLMAMVKRKDSRG
B6: modified TCR consisting of β10 and α4 (TCR)
TCR alpha: DVYITDKTVLDMRSMDFKSNSAVAWSNKSDFACANAFNNSIIPEDTFFPSPESSCDVKLVEKSFETDTNLNFQNLSVIGFRILLLKVAGFNLLMTLRLWSS
TCR beta: YGLSENDEWTQDRAKPVTQIVSAEAWGRADCGFTSESYQQGVLSATILYEILLGKATLYAVLVSALVLMAMVKRKDSRG
B7: modified TCR consisting of β10 and α6 (TCR)
TCR alpha: KSNSAVAWSNKSDFACANAFNNSIIPEDTFFPSPESSCDVKLVEKSFETDTNLNFQNLSVIGFRILLLKVAGFNLLMTLRLWSS
TCR beta: YGLSENDEWTQDRAKPVTQIVSAEAWGRADCGFTSESYQQGVLSATILYEILLGKATLYAVLVSALVLMAMVKRKDSRG
B8: modified TCR consisting of β2 and αCR (TCR)
TCR alpha: NIQNPDPAVYQLRDSKSSDKSVCLFTDFDSQTNVSQSKDSDVYITDKTVLDMRSMDFKSNSAVAWSNKSDFACANAFNNSIIPEDTFFPSPESSCDVKLVEKSFETDTNLNFQNLSVIGFRILLLKVAGFNLLMTLRLWSS
TCR beta: ATLVCLATGFYPDHVELSWWVNGKEVHSGVSTDPQPLKEQPALNDSRYCLSSRLRVSATFWQNPRNHFRCQVQFYGLSENDEWTQDRAKPVTQIVSAEAWGRADCGFTSESYQQGVLSATILYEILLGKATLYAVLVSALVLMAMVKRKDSRG
B9: modified TCR consisting of β2 and α8 (TCR)
TCR alpha: CANAFNNSIIPEDTFFPSPESSCDVKLVEKSFETDTNLNFQNLSVIGFRILLLKVAGFNLLMTLRLWSS
TCR beta: ATLVCLATGFYPDHVELSWWVNGKEVHSGVSTDPQPLKEQPALNDSRYCLSSRLRVSATFWQNPRNHFRCQVQFYGLSENDEWTQDRAKPVTQIVSAEAWGRADCGFTSESYQQGVLSATILYEILLGKATLYAVLVSALVLMAMVKRKDSRG
B10: modified TCR consisting of β2 and α5 (TCR)
TCR alpha: LDMRSMDFKSNSAVAWSNKSDFACANAFNNSIIPEDTFFPSPESSCDVKLVEKSFETDTNLNFQNLSVIGFRILLLKVAGFNLLMTLRLWSS
TCR beta: ATLVCLATGFYPDHVELSWWVNGKEVHSGVSTDPQPLKEQPALNDSRYCLSSRLRVSATFWQNPRNHFRCQVQFYGLSENDEWTQDRAKPVTQIVSAEAWGRADCGFTSESYQQGVLSATILYEILLGKATLYAVLVSALVLMAMVKRKDSRG
B11: modified TCR consisting of β2 and α6 (TCR)
TCR alpha: KSNSAVAWSNKSDFACANAFNNSIIPEDTFFPSPESSCDVKLVEKSFETDTNLNFQNLSVIGFRILLLKVAGFNLLMTLRLWSS
TCR beta: ATLVCLATGFYPDHVELSWWVNGKEVHSGVSTDPQPLKEQPALNDSRYCLSSRLRVSATFWQNPRNHFRCQVQFYGLSENDEWTQDRAKPVTQIVSAEAWGRADCGFTSESYQQGVLSATILYEILLGKATLYAVLVSALVLMAMVKRKDSRG
B12: modified TCR consisting of β2 and α10 (TCR)
TCR alpha: IPEDTFFPSPESSCDVKLVEKSFETDTNLNFQNLSVIGFRILLLKVAGFNLLMTLRLWSS
TCR beta: ATLVCLATGFYPDHVELSWWVNGKEVHSGVSTDPQPLKEQPALNDSRYCLSSRLRVSATFWQNPRNHFRCQVQFYGLSENDEWTQDRAKPVTQIVSAEAWGRADCGFTSESYQQGVLSATILYEILLGKATLYAVLVSALVLMAMVKRKDSRG
B13: modified TCR consisting of β2 and α7 (TCR)
TCR alpha: SNKSDFACANAFNNSIIPEDTFFPSPESSCDVKLVEKSFETDTNLNFQNLSVIGFRILLLKVAGFNLLMTLRLWSS
TCR beta: ATLVCLATGFYPDHVELSWWVNGKEVHSGVSTDPQPLKEQPALNDSRYCLSSRLRVSATFWQNPRNHFRCQVQFYGLSENDEWTQDRAKPVTQIVSAEAWGRADCGFTSESYQQGVLSATILYEILLGKATLYAVLVSALVLMAMVKRKDSRG
B14: modified TCR consisting of β2 and α2 (TCR)
TCR alpha: SVCLFTDFDSQTNVSQSKDSDVYITDKTVLDMRSMDFKSNSAVAWSNKSDFACANAFNNSIIPEDTFFPSPESSCDVKLVEKSFETDTNLNFQNLSVIGFRILLLKVAGFNLLMTLRLWSS
TCR beta: ATLVCLATGFYPDHVELSWWVNGKEVHSGVSTDPQPLKEQPALNDSRYCLSSRLRVSATFWQNPRNHFRCQVQFYGLSENDEWTQDRAKPVTQIVSAEAWGRADCGFTSESYQQGVLSATILYEILLGKATLYAVLVSALVLMAMVKRKDSRG
B15: modified TCR consisting of β2 and α4 (TCR)
TCR alpha: DVYITDKTVLDMRSMDFKSNSAVAWSNKSDFACANAFNNSIIPEDTFFPSPESSCDVKLVEKSFETDTNLNFQNLSVIGFRILLLKVAGFNLLMTLRLWSS
TCR beta: ATLVCLATGFYPDHVELSWWVNGKEVHSGVSTDPQPLKEQPALNDSRYCLSSRLRVSATFWQNPRNHFRCQVQFYGLSENDEWTQDRAKPVTQIVSAEAWGRADCGFTSESYQQGVLSATILYEILLGKATLYAVLVSALVLMAMVKRKDSRG
B16: modified TCR consisting of β2 and α9 (TCR)
TCR alpha: FNNSIIPEDTFFPSPESSCDVKLVEKSFETDTNLNFQNLSVIGFRILLLKVAGFNLLMTLRLWSS
TCR beta: ATLVCLATGFYPDHVELSWWVNGKEVHSGVSTDPQPLKEQPALNDSRYCLSSRLRVSATFWQNPRNHFRCQVQFYGLSENDEWTQDRAKPVTQIVSAEAWGRADCGFTSESYQQGVLSATILYEILLGKATLYAVLVSALVLMAMVKRKDSRG
B17: modified TCR consisting of β9 and α8 (TCR)
TCR alpha: CANAFNNSIIPEDTFFPSPESSCDVKLVEKSFETDTNLNFQNLSVIGFRILLLKVAGFNLLMTLRLWSS
TCR beta: FRCQVQFYGLSENDEWTQDRAKPVTQIVSAEAWGRADCGFTSESYQQGVLSATILYEILLGKATLYAVLVSALVLMAMVKRKDSRG
B18: modified TCR consisting of β9 and α10 (TCR)
TCR alpha: IPEDTFFPSPESSCDVKLVEKSFETDTNLNFQNLSVIGFRILLLKVAGFNLLMTLRLWSS
TCR beta: FRCQVQFYGLSENDEWTQDRAKPVTQIVSAEAWGRADCGFTSESYQQGVLSATILYEILLGKATLYAVLVSALVLMAMVKRKDSRG
B19: modified TCR consisting of β7 and α9 (TCR)
TCR alpha: FNNSIIPEDTFFPSPESSCDVKLVEKSFETDTNLNFQNLSVIGFRILLLKVAGFNLLMTLRLWSS
TCR beta: RLRVSATFWQNPRNHFRCQVQFYGLSENDEWTQDRAKPVTQIVSAEAWGRADCGFTSESYQQGVLSATILYEILLGKATLYAVLVSALVLMAMVKRKDSRG
B20: modified TCR consisting of β9 and α9 (TCR)
TCR alpha: FNNSIIPEDTFFPSPESSCDVKLVEKSFETDTNLNFQNLSVIGFRILLLKVAGFNLLMTLRLWSS
TCR beta: FRCQVQFYGLSENDEWTQDRAKPVTQIVSAEAWGRADCGFTSESYQQGVLSATILYEILLGKATLYAVLVSALVLMAMVKRKDSRG
B21: modified TCR consisting of β7 and α10 (TCR)
TCR alpha: IPEDTFFPSPESSCDVKLVEKSFETDTNLNFQNLSVIGFRILLLKVAGFNLLMTLRLWSS
TCR beta: RLRVSATFWQNPRNHFRCQVQFYGLSENDEWTQDRAKPVTQIVSAEAWGRADCGFTSESYQQGVLSATILYEILLGKATLYAVLVSALVLMAMVKRKDSRG

Target: CD3 subunits (CD3E, CD3G, CD3D, CD3Z) (human, UniProt P07766 23-207; P09693 23-182; P04234 22-171; P20963 22-164)
Sequence (P07766 23-207, chain 1 of 4): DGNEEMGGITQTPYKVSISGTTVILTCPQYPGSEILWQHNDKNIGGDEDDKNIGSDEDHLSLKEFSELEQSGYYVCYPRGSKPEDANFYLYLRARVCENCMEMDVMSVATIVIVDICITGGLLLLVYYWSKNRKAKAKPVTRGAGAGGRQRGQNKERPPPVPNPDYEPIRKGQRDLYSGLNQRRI
Sequence (P09693 23-182, chain 2 of 4): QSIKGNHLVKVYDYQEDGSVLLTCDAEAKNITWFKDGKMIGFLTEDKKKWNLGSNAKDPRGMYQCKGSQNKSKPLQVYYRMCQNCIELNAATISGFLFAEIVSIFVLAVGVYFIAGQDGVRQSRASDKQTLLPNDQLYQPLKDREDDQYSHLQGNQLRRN
Sequence (P04234 22-171, chain 3 of 4): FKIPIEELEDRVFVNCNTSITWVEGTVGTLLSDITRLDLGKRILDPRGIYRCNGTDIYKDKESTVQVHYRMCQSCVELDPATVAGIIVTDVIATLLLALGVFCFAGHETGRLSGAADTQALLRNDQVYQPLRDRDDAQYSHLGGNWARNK
Sequence (P20963 22-164, chain 4 of 4): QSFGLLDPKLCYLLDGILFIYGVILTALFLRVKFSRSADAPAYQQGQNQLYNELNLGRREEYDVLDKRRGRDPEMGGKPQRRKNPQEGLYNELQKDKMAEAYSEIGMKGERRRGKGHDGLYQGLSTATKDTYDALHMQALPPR
Test: cell-based or functional assay

CD3-recruiting activity (CD3-positive proportion, N=3), CD3-stably expressing 293T cells, ≥ 20%:
B1
B2
B3
B4
B5
B6
B7
B8
B9
B10
B11
B12
B13
B14
B15
B16
B17
B18
B19
B20
B21
